Data: patent US20120252054A1, “SYSTEM FOR TRANSFORMATION OF THE CHLOROPLAST GENOME OF SCENEDESMUS SP. AND DUNALIELLA SP” (priority 2009, published 2012)

Experiment: Endoxylanase enzyme function assay on clarified lysates
Assay type: biochemical, T. reesei
Conditions: clarified lysates of S. dimorphus transformants (parent 2 and 4), normalized for total soluble protein, pH 4.8, 42 degrees Celsius
Protocol: To determine if the endoxylanase produced by transformed algae cells was functional, endoxylanase activity was tested using an enzyme function assay. Briefly, algae cells were collected from TAP agar medium and suspended in BugBuster solution (Novagen). Cells were lysed by bead beating using zirconium beads. Cell lysates were clarified by centrifugation and the supernatants were normalized for total soluble protein (Coomassie Plus Protein Assay Kit, Thermo Scientific). 100 μL of each sample was mixed with 10 μL of 10× xylanase assay buffer (1M sodium acetate, pH=4.8) and 50 μL of the sample mixture was added to one well in a black 96-well plate. EnzCheck Ultra Xylanase substrate (Invitrogen) was dissolved at a concentration of 50 ug/ml in 100 mM sodium acetate pH 4.8, and 50 μL of substrate was added to each well of the microplate. The fluorescent signal was measured in a SpectraMax M2 microplate reader (Molecular Devices), with an excitation wavelength of 360 nm and an emission wavelength of 460 nm, without a cutoff filter and with the plate chamber set to 42 degrees Celsius. The fluorescence signal was measured for 15 minutes, and the enzyme velocity was calculated with Softmax Pro v5.2 (Molecular Devices). Enzyme velocities were recorded as RFU/minute. Enzyme specific activities were calculated as milliRFU per minute per μg of total soluble protein.

B1: endoxylanse: endoxylanase from T. reesei (BD11) expressed in the S. dimorphus chloroplast (protein)
chain: MVPVSFTSLLAASPPSRASCRPAAEVESVAVEKRQTIQPGTGYNNGYFYSYWNDGHGGVTYTNGPGGQFSVNWSNSGNFVGGKGWQPGTKNKVINFSGSYNPNGNSYLSVYGWSRNPLIEYYIVENFGTYNPSTGATKLGEVTSDGSVYDIYRTQRVNQPSIIGTATFYQYWSVRRNHRSSGSVNTANHFNAWAQQGLTLGTMDYQIVAVEGYFSSGSASITVSGTGDYKDDDDKSGENLYFQGHNHRHKHTG
modifications: codon optimized endoxylanase from T. reesei
notes: endoxylanase from T. reesei (BD11) expressed in the S. dimorphus chloroplast
endoxylanase activity in transformants relative to wild type cells: at least 4 fold
